Target: Thermoplasma acidophilum 20S proteasome α-subunit (Thermoplasma acidophilum, UniProt P25156 1-233)
Test: cryo-EM structure

Thermoplasma acidophilum 20S proteasome α-subunit, sequence (P25156 whole entry): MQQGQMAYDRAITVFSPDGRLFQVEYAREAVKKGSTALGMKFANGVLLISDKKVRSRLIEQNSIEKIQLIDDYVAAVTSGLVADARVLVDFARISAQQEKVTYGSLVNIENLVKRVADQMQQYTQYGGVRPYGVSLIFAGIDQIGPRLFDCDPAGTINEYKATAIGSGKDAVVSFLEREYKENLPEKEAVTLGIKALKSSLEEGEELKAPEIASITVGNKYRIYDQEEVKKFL

binding result: binds
B1: Thermoplasma acidophilum 20S proteasome β-subunit (natural protein, UniProt P28061 9-211, looked up)
chain: TTTVGITLKDAVIMATERRVTMENFIMHKNGKKLFQIDTYTGMTIAGLVGDAQVLVRYMKAELELYRLQRRVNMPIEAVATLLSNMLNQVKYMPYMVQLLVGGIDTAPHVFSIDAAGGSVEDIYASTGSGSPFVYGVLESQYSEKMTVDEGVDLVIRAISAAKQRDSASGGMIDVAVITRKDGYVQLPTDQIESRIRKLGLIL

Reference: article PMC5679434 (Nature methods, 2017)
